Data published in the domain aggregation screens of Martell et al. (2025).

Assay: soluble fraction after stress (log2 fold change); higher = more stays soluble; pooled small domains, quantitative proteomics
Details: stress: pH 4
Outline: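 How much of each domain stays soluble after acid stress, expressed as a fold change, is used to gauge aggregation propensity. Pooled custom libraries of small domains underwent pH 4 stress before high-throughput quantitative proteomics. A higher log2 value means more of the domain stayed soluble.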

Sequence | soluble fraction (log2)
HMLNPVEKLLLLSQLYIGRLKGSFVVKEKHHKSTILGEVRELSPEEITLKTDEGYRLIRVDDILTIQL | -0.704
HMLNSLDATQRLKLNKDGVVVFNFGKYVDQSVIDIFKKEKGYYNWMMSKDFSQQVKNIITKIYQEEIIG | -0.0228
HMLNTLGADIRALRKARGLTLAELAQTLGRSVGWLSQVERDMSEPGINDLRDLARALDVSISSLFG | -0.366
HMLNWINSDVLERFNSLTKEKQKAIVADTETRLNGLSQARFKVAKSSSNERLIAEFAIEINEAIMRAAAL | -0.894
HMLPADETEARVLNVLGSEPLHVDEIRNQADLPIEKISATLAMMELKGMVRQVGGMNYVAMR | -0.892
HMLPANGEAIYHYLASGAIKGVGPVTAQRIVDKFGEDTFDVLENNPLWLAEIKGITRKTAENIGAAFAAQF | -0.263
HMLPDAESFSYEVPYTKGDGGTYNYEGKIKAQNADAARDEIIRQAQVYFQMNPQFTPDYPSTTITSLD | 0.0666
HMLPDDDMLLNILTKLLIDKQFVINSHEIFDFIIKRANRSYEEMFILVNKLDQLSLEKKRQLTIPLIKEI | -1.22
HMLPDLQESIDELLNIVDQRLNTSFEELVSGVNTTEKAIAFFLALLETIKWGFIKAEQTNNENKINIEKNY | -1.4
HMLPDPIYEAFMMASDLGIVVRNGPQYAYPDKETGEVLYKALGREKFLQLMKDNDGLLTSIETEIRSM | -1.3
HMLPKTVTLIDPVSGVAKTVTWVPALTLYSARRKAGLNRVPNTATIDRGGRELTGKRGSTLQPGDVVRW | ≥ 0.43
HMLPPLGDQELELLRFITESAPITVREAAESYGKDRGLARTTVLTMMERLRAKGYLTRSESGAANEYSP | -0.148
HMLPPVFLTIDANENVIVRKDGEPVQTLNKFELGAFARSQAENSAEQPVVLAADKSIKYEVVMEVI | -0.378
HMLPRLVLSPGTEVLATVMGKYENGMSLVKISSHLFAMDLPSRVQVGDSLRMTFLHQDARPTFALA | -0.142
HMLPSDLDEGNRRRQLIEGAARLFRAKGFDGTSTRDIAAAAGMRSGSPFYHFDSKNALLYVVVQEGM | -0.115
HMLPSWLPTDAWEAFLEARVAMKARPTERAKGLLLGELSKLVSQGQDARAVLEQSVQRGWRGLFPVK | 0.0676
HMLPSWPGVSEFEVARLLRRGRARGSLTLDEVIDVVRDAELTSELIAGIRSSLRAEGIDFEET | -1.85
HMLPTLSLSVKIYKGEGDIALDLEEMVKAFDQLNFGSYPFSEKGVHGTNIVIRGNDKKHMEEAEDKVRSLT | -0.959
HMLPVDALFAQHPALIVTLGQTEKLKHGAAIRDWHFADGTYRVYSETGEFLLLGTVKGQILTTVKSFFE | -0.828
HMLQARKFTHIQGYEFEAEFLRTNGEFVELQDPQGRKKWFPISNFIQDDKDFIKEQAGNLSS | -0.903
HMLQEFTLELATAVVQEFRDQPGALINALHKLQETFGYVDEAAMPVLARLFNLSRAEVHGVASFYHDFRRS | -1.35
HMLQEHVLEIRHPSWNDAFRIIGHDGWRTQTGAHAAILSYDEEELNIKWDSWGYERFIRDEKGIFRLAA | -0.165
HMLQESDPEALRGIVKSVLVDHAAVAEEYRAGKQSVLQFLVGQGMKASKGAGNPGLIRDLMLEEL | -0.184
HMLQLSDAISRVESFLQGQNRNLAFSIDENTERSVVTVLDSDTGDVIRQIPSEELLVLAKRIQELQQD | -1.19
HMLQMSDSSALEAILDEVLGSEMGQKALSDIEAGNMKAMGFIIGQSMKLSKGQANPQIINKLLQQRLK | -0.487
HMLQNLGFKPDLEIRHFPGIVLPDIHRSKKTISLLYTLLAGDIKKLPENEINYKDSKIISSYLWTLLRYH | 0.22
HMLQSGSDYLIEQVRMYTATGQREYMDNYFEELNTTRRRENALEYFAEHYGDNDAFTLLKSAMTTSQN | -0.691
HMLQVRRILQLLADGYSKRQISQQTAVSRNTIDSYEDRFHLTGKSYQELLSMEDGELSGIVYP | 0.321

Sequence | soluble fraction (log2)
HMLQVSDENFVVELVQKVLLDNPSSVQEYKNGKESVLQFLIGQAMKASKGTANPQIVKEIMLKLL | -0.443
HMLQYSQEIEEAQKILQNLGLYKGEIDGINGVNTKSAIKEFQRKSGLIIDGILGPNTTSALSKGAESYITV | 0.0398
HMLRISEEVWALVEKTLREDWSPEQVSGKLKASGISVSHERIYQHIYADKRVGGTLWTHLRR | -0.767
HMLRLLEIIAGNEVSKEINSQVIKYYKALKNKKIEEINNLTPSYNKLIISFDLKKKNFREMKKIIEDISIN | -0.436
HMLRPEEMIYHEMLDAILDRRLEPGMKLVEEDLAKTFGVSRARIRATFLQLAHDKLINLVPNRGAFVAEP | -0.561
HMLRRNQVQSQVIPRENGSYVVELQLRDDVDSILRLELTAATEAMARDLADRFRQDPEGVYTRLLSALY | -1.57
HMLRTEYLTVNYAKASEVAELVTASGFLSSRGSITVDERTNTLLLQDTATNIDEVRFMLEQLD | -0.868
HMLSADLLDKIQRIDSLEQQGKYAQAEKEARALLSDPSITPSERASVQNILSSIARKKAAQAQ | 0.0475
HMLSAGTTEQRLAMLQYQWEKQSETYSALGPNNGVVTLGQIRNTMAKIAELAGFKDAAQFWMPVPMDYDV | -0.491
HMLSAPMPGTVLEVHVKEGQRVREGQTLVVMEAMKMEHRVQAPRAGVVTKLHYSEGDRVDVGAILVEIG | -1.31
HMLSAQEIPVEDIATRDFVLAEDVVSAKKVLLLPKGVDLSWFGSAKKRLVQRLKSEGVTHIRVFA | 0.008
HMLSFSEAERAVLSLLNRRPDLSAKALASELAVSARTVERYLQSLQQKGKLLRVGAKKGGYWQV | 0.115
HMLSGNLTADAHVHRGLQALSDGRNEDALVDFTKATEVQADFAEAWNKRATVNYLLGRYDAAVLDIQKTLE | 0.0958
HMLSLDDAAFERYDLTMREREVLLLLLNRLTYEEIAERLFISTNTVKTHVGNVYKKTGVSSRKELVSK | -0.953
HMLSLGQQIRNHVLSRIESGEWPEGSRIPSEAKLVELLGASRMTIHIALRDLSAEGVLLRKQGAGTFVAPR | -0.553
HMLSRKEVFTVSQKDIEKNPIGAADKFFDGHVGIHKLLVVDEEDRLRGLFTLSDIERINDEQ | -0.0114
HMLSRTYDSSGPDVKIRGTAQTVADKYMSLARDAQSSGDRVMAENYLQHAEHYNRIIAAAQAQ | 0.221
HMLSSEQQQKLDSLSRKELEVAELVSHGATNKMIARTMNITERTVKAHLTAIFQKMNIPDRLSLAIFFRDL | 0.0769
HMLSSNEIKEIFALFDKSNRGQVATSELGTLVRALNLNPTETEITDMQSKVDPKGQGSFTLDVLEKVVQD | -0.929
HMLSVNREQVEQSLKQEWGFDYDKNLRAAQRAIDVYGDDDLKLLLNGPTGNDPAIVKLFARLGGEVTEE | -0.813
HMLSYIELTVDNTSKASYIMTDKMKINNFKIIGNNTIRVYENKVSPQDISRTLSMNNVSIEALGRKS | -0.253
HMLSYNINEESKSSIMNVNVLKNNFASIDVEKLQNIIFTTFKKYNYYLNDFSSMNLLLHLLIIVDREL | -0.172
HMLTEKEEEVMQILWDNGPLFVREILEFYPDPKPHYNTVSTVIRVLEEKNFASHKAYGNTYQYFP | 0.18
HMLTLEDMTRINSIISPRIKKGQSLYHIAKNNGDELNISESTLRRLVMTGEMDAGIIDLPQAVK | -0.333
HMLTLTNREKQVLVYIAKGHQVAQIAYELKLSGHTINGYIKTIYQKLHISSRAEAALLAQQYGL | -0.138
HMLTRQNFHGIKLPTIHEYIDLLNSRVNANIDKTNNWQSSVSHLRTYLNSHNINAVSKESINNYIDERLN | 0.0397
HMLTRRQSEVLDFIRQFAESESMPPTLHEIAKGMGFSSDNAARDHVRALARKGAIDLVGGTSRGIRLR | -0.331
